Results from publication PMC4302019.

Target: SibV (predicted extradiol dioxygenase of sibiromycin biosynthesis), holo form reconstituted with Fe2+ (Streptosporangium sibiricum)
Assay: SEC

- stoichiometry N: 2
Substance: SibV (predicted extradiol dioxygenase of sibiromycin biosynthesis), holo form reconstituted with Fe2+ (enzyme)
